Experimental data reported in the nanobody polyreactivity screen of Harvey et al. (2022).

assay: yeast display, Sf9 membrane polyspecificity reagent, FACS + sequencing; frameworks hold sequencing errors
Summary of the method: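 Synthetic nanobody libraries on Saccharomyces cerevisiae BJ5465 were galactose-induced for 36–48 hours, stained 1 hour at 4 °C with 10% biotinylated, detergent-solubilized Sf9 membrane reagent and enriched on streptavidin microbeads. FACS then separated cells into low and high (top ~1%) gates by anti-HA (expression) and streptavidin (reagent binding) fluorescence. Genes were colony-PCR amplified, MiSeq 2 × 250 sequenced and CDR-length filtered. A clone's polyreactivity label is that of its gate of origin.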

Sequence	polyreactivity (PSR sort gate)
QVQLVESGGGLVQAGGSLRLSCAASGSIIPLYAMGWYRQPPGKERELVAAITSNGGRTYYADSVKGRFTISRDNAKNTVYLQMNSLKPEDTAVYYCNKYLLDYRRGRSDYWGQGTQVTVSS	low polyreactivity
QVQLVESGGGLVQAGGSLRLSCAASGSIIQYYAMGWYRQAPGKERELVASITWSGGSTYYADSVKGRFTISRDNAKNTVFLQMNSLKPEDTAVYYCAKRLYLKTWAASTADDYWGQGTQVTVSS	low polyreactivity
QVQLVESGGGLVQAGGSLRLSCAASGSIIRRNVMGWYRQAPGKERELVAASSWSGDRTYYADSVKGRFTISRDNAKNTVYLQMNSLKPEDTAVYYCAAANASPRRYGQYDYWGQGTQVTVSS	high polyreactivity
QVQLVESGGGLVQAGGSLRLSCAASGSIIRYNAMGWYRQAPGKERELVAAITKGAGSTYYADSVKGRFTISRDNAKNTVYLQMNSLKPEDTAVYYWNKARGSGHTYYSWGLGTQVTVSS	high polyreactivity
QVQLVESGGGLVQAGGSLRLSCAASGSIISYYAMGWYRQAPGKERELVAAITASGGSTYYADSVKGRFTISRDNAKNTVYLQMNSLKPEDTAVYYCAAGTHTDYGRYYYWGQGTQVTVSS	low polyreactivity
QVQLVESGGGLVQAGGSLRLSCAASGSIITPNAMGWYRQAPGQERELVAAISSGGSTNYADSVKGRITISRDNAKNTVYFQLTCLKPEDTAVYYCAKSIDGWYWRRRRYDYWGQGTQVTVSS	low polyreactivity
QVQLVESGGGLVQAGGSLRLSCAASGSIITRNAMGWYRQAPGKERELVATIRYRGGSTYYADSVKGRFTISRDNAKNTVFLQMNSLKPEDTAVYYCAARRSHPPDPRFRYGYWGQGTQVTVSS	high polyreactivity
QVQLVESGGGLVQAGGSLRLSCAASGSIITWNAMGWYRQAPGKERELVAAIDWDGGSTYYADSVKGRFTISRDNAKNTVYLQMNSLKPEDTAVYYCAATYGWYTGRYPSGHYYYWGQGTQVTVSS	low polyreactivity
QVQLVESGGGLVQAGGSLRLSCAASGSIITYYAMGWYRQAPGKDSELVAVISASGGRTYYADSVKGRFTISRDNAKNTVYLQMISLKPEDTAVYYCAAYQSIYSFKFGYWGQGTQVTVSS	high polyreactivity
QVQLVESGGGLVQAGGSLRLSCAASGSIIVRYAMGWDRQAPGKERELVAAISKSGGSTHYADSVKGRFTISRDNAKNTVYLQMNSLKPEDTAVYYCAAVYYYRFTTYYYWGQGTQVTVSS	high polyreactivity
QVQLVESGGGLVQAGGSLRLSCAASGSIIVRYAMGWYRQAPGKERELVATITFRDTSTYYADSVKGRFTISRDNAKNTVYLQMNSLKPEDTAVYYCAAVRADLWDIARYDYWGQGTQVTVSS	low polyreactivity
QVQLVESGGGLVQAGGSLRLSCAASGSIIVTYAMGWYRQAPGKERELVATISGGGSTTYADSVKGRFTISRDNAKNTVYLQMNSLKPEDTAVYYCATDARYTSHRTAGYDYWGQGTQVTVSS	low polyreactivity
QVQLVESGGGLVQAGGSLRLSCAASGSIIVYYAMGWYRQAPGKERELVAAIRVRGGSTYYADSVKGRFTISRDTAKNTVYLQMNSLKPEDTAVYYCATAGRYGRYRTNAYRSKYDYWGQGTQVTVSS	high polyreactivity
QVQLVESGGGLVQAGGSLRLSCAASGSIIWLYAMGWYRQAPGKERELVAAISSGGSTYYADSVKGRFTISRDNAKNTVYLQMNSLKPEDTAVYYCNVDYWQPWQYDYWGQGTQVTVSS	high polyreactivity
QVQLVESGGGLVQAGGSLRLSCAASGSIIYHYAWGWYRQAPGQERELVDAITRCGGSTYYADSVKGRFTISRDNAKNTVYLQMHSLKPEDTAVYYCAREAGRYAYKYYWWQRTDYDYGGQGTQVTVSS	low polyreactivity
QVQLVESGGGLVQAGGSLRLSCAASGSIIYLYTMGWYRQAPGKERELVAAISSSGSSTYYADSVKGRFTISRDNAKNTVYLQMNSLKPEYTSVYYCAARYSYDSYYWGKGTQVTVSS	high polyreactivity
QVQLVESGGGLVQAGGSLRLSCAASGSILAYYGMGWYRQAPGKEREFVAAISNRGGSTYYADSVKGRFTISRDNAKNTVYLQLNSLKPEDTAVYYCARELYRRVWHHWAYWAAYDYWGQGTQVTVSS	low polyreactivity
QVQLVESGGGLVQAGGSLRLSCAASGSILDGYVMGWYRQAPGKDRELVAAISTNSDRTYYADSVKGRFTISRDNAKNTVDLQMNSLKPEDTAVYYCNARKLRRAGFPYDYWGQGTQVTVSS	high polyreactivity
QVQLVESGGGLVQAGGSLRLSCAASGSILDSNAMGWYRQAPGKERELVAAITSGGSTYYADSVKGRFTISRDNAKNTVYLLMNSLKPEDTAVYYCAAAYLGYGAVQPSYEGGYWGQGTQVTVSS	low polyreactivity
QVQLVESGGGLVQAGGSLRLSCAASGSILDYKVMGWYRQPPGKERELVAAIRGGGSTYYADSVKGRFTISRDNAKNTVYLQMNSLKPEVTAVYYCAKDSQTARDFDYWGQGTQVTVSS	low polyreactivity

Sequence	polyreactivity (PSR sort gate)
QVQLVESGGGLVQAGGSLRLSCAASGSILESNVMGWYRQAPGKERELVASISSSGDSTYADSVKGRFTISRDNAKNTVYLQMNRLKPEDTAVYYCASDRLYWTYALYYWGQGTQVNVSS	low polyreactivity
QVQLVESGGGLVQAGGSLRLSCAASGSILEYYAMGWYRQAPGKERELVAGISSAGNTYYADSVKGRFTISRDNAKNTVYLQMNSLKPEDSAVYYCAAVPWSGEYDYWGQATQVTVSS	low polyreactivity
QVQLVESGGGLVQAGGSLRLSCAASGSILFVYAMGWYRQAPGKERELVAGINSSGTSTYADSVKGRFTISRDNAKNTVYLQMNSLKPEDTAVYYCAARWFYYRWAYDYWGQGTQVTVSS	low polyreactivity
QVQLVESGGGLVQAGGSLRLSCAASGSILFYNTMGWYRQAPGKERELVASITSGGSTKYADSVKGRFTISRDNAKNTVYLQMNSLKPEDTAVYYCNADRRFYSIYRWHHYYWGQGTQVTVSS	low polyreactivity
QVQLVESGGGLVQAGGSLRLSCAASGSILGDYAMGWYRQAPGSEREFVAAIDGSDGSTYYADSVKGRFTISRDNAKNTVYLQMNSLKPEDTAVYYCAATDYDTYRSSWYDYWGQGTQVTVSS	low polyreactivity
QVQLVESGGGLVQAGGSLRLSCAASGSILGGNAKGWYRQAPGKERELVAAITFSGGGTYYADSVKGRFTISRDNAKNTVYLQMNSLKPEDTAVYYCAADKDGYTYEFDYWGQGTQVTVSS	low polyreactivity
QVQLVESGGGLVQAGGSLRLSCAASGSILGLNAMGWYRQAPGKERELVASISRRGGSTRYADSVKGRFTISRDNAKNTVYLQMNSLKPEDTAVYYCNAYHWDGDGVFYEYDYWGQGTQVTVSS	high polyreactivity
QVQLVESGGGLVQAGGSLRLSCAASGSILGPYAMGWYRQAPGKERELVAAISWGGGSTYYADSVKGRFTISRDNAKNTVYLQMNSLKPEDTAVYYCAADFGYYDYDYWGQGTQVTVSS	low polyreactivity
QVQLVESGGGLVQAGGSLRLSCAASGSILGTYAMGWYRPAPGKESELVAAISSSGRTSYADTVKGRFTNSRDNAKNTVYLQMKSLKPEDTAVYYCNASNYIVLINDPDAAPWVYDYWGPGTQVTVSS	low polyreactivity
QVQLVESGGGLVQAGGSLRLSCAASGSILGYYAMGWYRQAPGKERELVAGIDYSAGSTYYADSVKGRFTISRDNAKNTVYLQMNSLKPEDTAVYYCAADVDSYWGTYDYWGQGTQVTVSS	low polyreactivity
QVQLVESGGGLVQAGGSLRLSCAASGSILGYYAMGWYRQAPGTEREFVAAITRSGSRTYYADSVKGRFTISRDNAKNTVNLHMNSLKPEDTAVYYCAKKGLFQGWPTLVDYWGEGTQVTVSS	high polyreactivity
QVQLVESGGGLVQAGGSLRLSCAASGSILGYYAMRWYRQAPGKERELVAAITASGGSTYYADSVKGRFTISRDNAKNTVYLQMNSLKPEDTAAYYCAAQYYATYGYWGQGTQVTVSS	low polyreactivity
QVQLVESGGGLVQAGGSLRLSCAASGSILHLYAMGWYRQAPGKERELVARINSGGTTNYADSVKGRFTISRDNAKNTVYLQMNSLKPEDTAVYYCAARFTPFITSDDGHYDYWGQGTQVTVSS	low polyreactivity
QVQLVESGGGLVQAGGSLRLSCAASGSILIPNAMGWYRQAPGKERELVASISKSGGSTYYADSVKGRFTISRDNAKNTVYLPKNSLKPEDTAVYYCAAAFVSVRKRYGYWGQGTQVTVSS	high polyreactivity
QVQLVESGGGLVQAGGSLRLSCAASGSILIYNAMGWYRQAPGKERELVAGISRRGASTYYADSVKGRFTISRDNAKNTVYLQMNSLKPEDTAVYYCAALGKYIVAWSGDYWGHGTQVTVSS	low polyreactivity
QVQLVESGGGLVQAGGSLRLSCAASGSILLRYAMGWYRQAPGKEWELVAAIRTIGASTYYADSVKGRFTISRYNAMITVYLQMNSLKPDDTAVYYCNAESASYWYRPGYDYWGQGNQVTVSS	low polyreactivity
QVQLVESGGGLVQAGGSLRLSCAASGSILLTNTMGWYRQAPGKERELVADINSGASTNYADSVKGRFTISRDNAKNTVYLQMNSLKPEDTAVYYCAADTKGGTYEYDYWGQGTKVTVSS	low polyreactivity
QVQLVESGGGLVQAGGSLRLSCAASGSILLYYTMGWYRQAPGKERELVASITSGGRTYYADSVKGRFTISRDNAKNTVYLQMNSLKPEDTAVYFCAADVWKLYDYWGQGTQVTVSS	low polyreactivity
QVQLVESGGGLVQAGGSLRLSCAASGSILNIYTMGWYRQAPGTERELVAAITSGDITYYADSVKGLFTISRDNAKNTVYLQMISLKPEDTAVYYCAADASSQINEWLSYGEGYNYWGQGTQVTVSS	low polyreactivity
QVQLVESGGGLVQAGGSLRLSCAASGSILNNYAMGWYRQAPGKERELVAAISSSGGTNYADSVKGRFTISRDNAKNTVYLQMNSLKPEDTAVYYCNADVLDGGYDYWVQGTQVTVSS	low polyreactivity
